Source: patent US20080009021A1

Target: E3 His-ROC1/Cul1 complex (UniProt Q13616)
Assay: cell-based or functional assay

amount of E3 giving maximum attachment of ubiquitin moiety to E3 (luminescence, nickel plate) (ng per 100 µl): 200 to 300
Substance: Flag-ubiquitin moiety
